{"source": "patent US20240002499A1", "about": "“ANTI-CLIC1 PROTEIN ANTIBODIES AND THE DIAGNOSTIC AND THERAPEUTIC USES THEREOF” (Universita' Degli Studi di Milano, priority 2020, published 2024)", "key": {"tmCLIC1 ion channel [1]": {"target": "T1, tmCLIC1 ion channel (Homo sapiens, UniProt O00299)", "T1 construct": "endogenous in cells; host or cells: primary human glioblastoma, colorectal cancer and prostate cancer cells", "assay": "Patch clamp of CLIC1-mediated chloride current in primary human tumour cultures", "assay_type": "cell-based", "settings": "perforated patch clamp; glioblastoma, colorectal and prostate primary human tumour cultures; perfusion of antibody", "experimental": "(§1) The microelectrodes were obtained from borosilicate capillaries with a diameter of 1.5 mm. Micropipettes were produced with a P-97 Brown-Flaming puller (Sutter Instruments, Novato, CA), with which the capillaries were forged to a tip diameter of 1-1.5 μm and electrical resistance of 5-8 MΩ.\n(§2) The perforated patch clamp configuration was used for the whole-cell experiments, employing the antibiotic gramicidin (final concentration in pipette 5 μg/ml) which forms pores in the membrane that are only permeable to monovalent cations; in this way, the cytoplasmic concentration of the chloride ion remains unchanged throughout the experiment. The ion currents were digitised at 5 kHz and filtered at 1 kHz. Clampex 9.2 was used as the data acquisition and analysis programme.\n(§3) In the time-course experiments, the potential was set on the basis of the resting potential of each cell, and a voltage step of +60 mV was applied every 5 seconds. The current measured is that observed at the end of the voltage step lasting 800 ms. When the amplitude of the current reaches a constant value, the antibody and IAA94 are added in sequence.\nFor the current-voltage graph, the voltage step protocol used to isolate the currents consisted of voltage variations ranging from −60 mV to +60 mV, with progressive increments of 20 mV lasting 800 ms. […]"}, "tmCLIC1 ion channel [2]": {"target": "T2, tmCLIC1 ion channel (Mus musculus, UniProt Q9Z1Q5)", "T2 construct": "endogenous in cells; host or cells: BV-2 mouse microglial cell line", "assay": "Whole-cell patch clamp on BV2 microglial cells with β-amyloid", "assay_type": "cell-based, mice", "settings": "whole-cell configuration, perfusion of antibody after β-amyloid", "excerpt": "The microglial cells used (BV-2) originated from an immortalised cell line deriving from C57BL/6 mice and commonly marketed. The culture medium used was RPMI (Thermo Fisher Scientific) with the addition of 10% FBS (Euroclone) and 1% Pen/Strep ([…], Thermo Fisher Scientific).\nas §1, §2\nas §3, with “sequence. […]” for “sequence.”"}, "[3]": {"test_system": "Metalloproteinase 7 (MMP7)", "assay": "Western blot of Metalloproteinase 7 in COLO201", "assay_type": "cell-based", "settings": "COLO201, 72 h of treatment"}, "mouse glioblastoma cells": {"test_system": "mouse glioblastoma cells", "assay": "Glioblastoma cell growth curves, polyclonal antibody versus tmCLIC1omab", "assay_type": "cell-based", "settings": "exposing cells for 96 hours", "experimental": "The cells were seeded in 24-well plates (20,000 cells/well) and counted after 24, 48, 72 and 96 hours to construct the growth curve. The cells were collected and centrifuged, and the resuspended pellet was diluted 1:1 with Trypan Blue. An automated counter (Countess II, Thermo Fisher Scientific) was used to count the cells. All data were normalized to their controls.\nThe cells were plated in 24-well multiwell plates at a density of 10,000 cells/cm 2. The number of live and dead cells for each sample was counted after 72 hours with an automated counter (Countess II, Thermo Fisher Scientific), following the same process as used for the growth curves. All data were standardised to the corresponding controls."}, "tmCLIC1 [4]": {"target": "T3, tmCLIC1 (Mus musculus, UniProt Q9Z1Q5)", "T3 construct": "endogenous in cells; host or cells: BV-2 mouse microglial cell line", "assay": "Immunofluorescence on live microglial cells", "assay_type": "cell-based, mice", "settings": "live microglial cells before and after stimulation with β-amyloid", "experimental": "The migration of the protein to the plasma membrane gives rise to insertion of CLIC1 as transmembrane protein. The tmCLIC1omab antibody was used on live cells to specifically identify tmCLIC1. […] In live cells, the tmCLIC1omab antibody was used before (B) and after (C) stimulation with β-amyloid.\nImmunofluorescence analyses were conducted to evaluate the specificity of the antibody in binding the transmembrane portion of the CLIC1 protein in WT and Clic1^−/− cells. The cells (5×10^4 cells/well) were plated on slides (ϕ12 mm). The cells were kept viable throughout the initial processes. The cells were washed three times with PBS Ca^2+/Mg^2+, and incubated for 45 minutes at room temperature in blocking solution (5% BSA in PBS). Subsequently, after removal of the blocking solution, the solution containing the antibody (3.5 μg/ml in PBS/BSA 5×) was added, and incubated for 1 h at room temperature. After three washes with PBS Ca^2+/Mg^2+, the cells were fixed with paraformaldehyde (PFA 2%) for 5 minutes at room temperature. After being washed three times with PBS Ca^2+/Mg^2+, the cells were incubated with secondary antibody Alexa Fluor 488 (Thermo Fischer Scientific) for 2 h at room temperature in the dark. […] The slides were observed through a Zeiss Examiner A1 fluorescence microscope with a Zeiss 40×/0.75 NA water immersion lens."}, "tmCLIC1 [5]": {"target": "T4, tmCLIC1 (Homo sapiens, UniProt O00299)", "T4 construct": "monocytes isolated from the peripheral blood of patients with a diagnosis of Alzheimer's disease and controls; endogenous in cells; host or cells: human peripheral blood monocytes (Alzheimer's disease patients and healthy controls)", "assay": "Immunofluorescence on monocytes isolated from peripheral blood", "assay_type": "cell-based", "settings": "monocytes of Alzheimer's disease patients and controls, fluorescent secondary antibody", "experimental": "For each individual, 8 ml of peripheral blood was collected in BD Vacutainer® CPT™ test tubes with sodium citrate, gently mixed by inversion and centrifuged at room temperature for 20 min. at 1600 rpm to separate three distinct phases: a bottom layer containing red blood cells, an intermediate layer containing mononuclear cells, and a top layer containing plasma. The layer of mononuclear cells was collected together with part of the plasma and transferred to a centrifuge tube. PBS was added until a final volume of […] was reached, and it was gently mixed by inversion and centrifuged for 10 min. at 300 rpm. The resulting pellet underwent two further washes in 5 ml of PBS, and was used for the subsequent experiments.\nThe pellet of mononuclear cells isolated from the blood was counted and divided into samples containing an equal number of cells (1×10^6 cells/sample). Each sample was resuspended in 90 μl of cold staining solution (0.5% BSA, 2 mM EDTA in PBS) and, after the addition of 10 μl of FcR blocker (Miltenyi Biotec), was incubated in ice for 15 min. 10 μl of primary antibody diluted in staining solution was then added, and the sample was incubated for 1 h in ice. At the end of the incubation period, each sample was washed with 1 ml of cold staining solution and centrifuged at 350 rpm for 5 min. […]"}}, "note": "Entries after “also recorded” stand apart in the source; their conditions may differ."}
{"molecule": "tmCLIC1omab: IgG1 class antibody containing the heavy chain variable region SEQ ID NO:13 and the light chain variable region SEQ ID NO:14 (antibody, listed as Mus musculus, V domains shown) VH: EVMLVESGGGLVKPGGSLKLSCAASGFAFSNYAMSWIRQIPEKRLEWVATISTGGSSTFYPDSVKGRFTISRDNAKNTLYLQMSSLRSEDTAMYYCTRHAYEAWFAYWGQGTLVTVSA VL: QIVLTQSPALMSASPGEKVTMTCSASSSVSYMYWYQQRPRSSPKPWIYLTSTLASGVPTRFSGSGSGTSYSLTISSMEAEDAATYYCQQWNSHPLTFGSGTKLEIK", "values": [{"measurement": "CLIC1-mediated chloride current (current density/voltage)", "setting": "tmCLIC1 ion channel [1]", "value": "almost totally eliminated; also recorded: depressed and almost eliminated the membrane current"}, {"measurement": "reduction of membrane current increased by β-amyloid peptide", "setting": "tmCLIC1 ion channel [2]", "value": "about fourfold"}, {"measurement": "expression of Metalloproteinase 7", "setting": "[3]", "value": "mainly abolished"}, {"measurement": "percentage of cell death", "setting": "mouse glioblastoma cells", "value": 15, "unit": "%"}, {"measurement": "recognition of tmCLIC1 on live cells", "setting": "tmCLIC1 [4]", "value": "only reacts from the exterior"}, {"measurement": "specificity of staining on monocytes", "setting": "tmCLIC1 [5]", "value": "specificity of the antibody for the membrane protein"}]}
